According to patent publication US20190255093A1:

Assays:
[1] = target: murine proMyostatin (mouse) (UniProt O08689); assay: method not stated
[2] = target: latent myostatin in serum and muscle of mice (mouse) (UniProt O08689); assay: cell-based or functional assay

Kd [1]	latent myostatin signal in muscle (fluorescent western blot, normalized to total protein, compared to WT mice) [2]	Substance
2.88 nM	3 fold	muSRK-015P (antibody)
2.57 nM	–	muSRK-015 (antibody)
8.35 nM	–	SRK-015 (antibody)
